Laboratory results taken from patent US20200115443A1 (TRICAN BIOTECHNOLOGY, published 2020).

Assays:
VEGF-A [1] = target: T1, VEGF-A (human, UniProt P15692-4 27-191, limits assumed); experiment: direct ELISA, VEGF-A coated 100 ng/well, HRP anti-human Fc detection
T1 construct: also called VEGF-A protein; human VEGF

VEGF-A [2] = target: T1, VEGF-A; experiment: cell-based or functional assay
complement C5 [3] = target: T2, complement C5 (UniProt P01031 19-1676, limits assumed); experiment: cell-based or functional assay
complement C5 [4] = target: T2, complement C5; experiment: direct ELISA, C5 coated 100 ng/well, HRP anti-human Fc detection

T1 sequence (P15692 other isoform, or with tags, fused parts or gaps limits assumed): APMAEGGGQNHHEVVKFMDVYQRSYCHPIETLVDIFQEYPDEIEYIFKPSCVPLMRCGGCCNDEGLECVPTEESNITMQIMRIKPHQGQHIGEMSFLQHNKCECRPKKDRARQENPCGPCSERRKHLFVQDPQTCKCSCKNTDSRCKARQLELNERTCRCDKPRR

B1: bi-functional fusion protein C5V (other)
chain 1: QVQLVQSGAEVKKPGASVKVSCKASGYIFSNYWIQWVRQAPGQGLEWMGEILPGSGSTEYTENFKDRVTMTRDTSTSTVYMELSSLRSEDTAVYYCARYFFGSSPNWYFDVWGQGTLVTVSSASTKGPSVFPLAPCSRSTSESTAALGCLVKDYFPEPVTVSWNSGALTSGVHTFPAVLQSSGLYSLSSVVTVPSSNFGTQTYTCNVDHKPSNTKVDKTVERKCCVECPPCPAPPVAGPSVFLFPPKPKDTLMISRTPEVTCVVVDVSQEDPEVQFNWYVDGVEVHNAKTKPREEQFNSTYRVVSVLTVLHQDWLNGKEYKCKVSNKGLPSSIEKTISKAKGQPREPQVYTLPPSQEEMTKNQVSLTCLVKGFYPSDIAVEWESNGQPENNYKTTPPVLDSDGSFFLYSRLTVDKSRWQEGNVFSCSVMHEALHNHYTQKSLSLSLGGGGSGGGGSGGGGSSDTGRPFVEMYSEIPEIIHMTEGRELVIPCRVTSPNITVTLKKFPLDTLIPDGKRIIWDSRKGFIISNATYKEIGLLTCEATVNGHLYKTNYLTHRQTNTIIDVVLSPSHGIELSVGEKLVLNCTARTELNVGIDFNWEYPSSKHQHKKLVNRDLKTQSGSEMKKFLSTLTIDGVTRSDQGLYTCAASSGLMTKKNSTFVRVHEK
chain 2: DIQMTQSPSSLSASVGDRVTITCGASENIYGALNWYQQKPGKAPKLLIYGATNLADGVPSRFSGSGSGTDFTLTISSLQPEDFATYYCQNVLNTPLTFGQGTKVEIKRTVAAPSVFIFPPSDEQLKSGTASVVCLLNNFYPREAKVQWKVDNALQSGNSQESVTEQDSKDSTYSLSSTLTLSKADYEKHKVYACEVTHQGLSSPVTKSFNRGEC
EC50 (VEGF-A [1]): 0.288 nM | IC50, inhibition of VEGF-dependent HUVEC proliferation (MTS) (VEGF-A [2]): 0.195 nM | IC50, inhibition of the alternative complement pathway (hemolysis of rabbit erythrocytes by normal human serum) (complement C5 [3]): 25.3 nM | EC50 (complement C5 [4]): 3.57 nM
